The values that follow come from the supplement of paper PMC12042874.

± gives the uncertainty stated by the source.

The nature of this data set: amyloid nucleation score (Sup35N fusion, yeast selection) (log enrichment); library NNK1; higher = more nucleation; inactive = no reads after selection. The method in brief:
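Sup35N fusions to peptides of 20 random codons were expressed in psi-negative yeast, induced 24 hours with 100 μM copper sulfate, and grown 7 days at 30°C on medium lacking adenine and uracil. Input and output plasmid inserts were sequenced by Illumina. The nucleation score is the DiMSum log enrichment of output over input reads, centred on the mode score of non-aggregating sequences. Sequences with under 100 input reads were excluded.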
Consider RDAEWTMIIIIARNQMKAFS, for which the amyloid nucleation score is -0.162 ± 0.4.

RDAFYRGRTRFNQRRYMYRR registered an amyloid nucleation score of -0.335 ± 0.53.

RDASRVVCMRPRWGPFQVVV displayed an amyloid nucleation score of 0.222 ± 0.69.

Regarding RDCWQ, the amyloid nucleation score is -0.571 ± 0.3.

In the case of RDIRWITQEADGYLELRHSF, the amyloid nucleation score was -0.085 ± 0.73.

In turn, RDLDSSILNNFFDICTFWNK displayed an amyloid nucleation score of -0.305 ± 0.5.

RDLTKSDLMSVNAYMVIYRW came in with an amyloid nucleation score of 0.382 ± 0.31.

RDMRLLAFRLPIRRFTRGST gave an amyloid nucleation score of -0.097 ± 0.44.

Regarding RDNKVPVR, the amyloid nucleation score was -0.537 ± 1.9.

With RDPVLDVGLRCMWHNGGPFG, the amyloid nucleation score was -0.035 ± 1.4.

RDWTRGHACRYCSWQWVARG registered an amyloid nucleation score of 0.529 ± 0.88.

REDAYR displayed an amyloid nucleation score of -0.429 ± 0.91.

REGLTFPRVLPIWHLFVSSD had an amyloid nucleation score of -0.139 ± 0.32.

As for RELLGGVRNRLVYR, the amyloid nucleation score is -0.192 ± 0.23.

RESASSNGYVYILCMQRVPR showed an amyloid nucleation score of 0.102 ± 0.34.

With RFASISYVGTNSGLDVQSNW, the amyloid nucleation score came out at 0.171 ± 1.2.

For the substance RFGGD, the amyloid nucleation score is -0.388 ± 0.57.

The substance RFHCYWTPRTLSMASSTPWM gave an amyloid nucleation score of 0.47 ± 0.45.

For RFISCMFFKYIPLQCFVLGR, the amyloid nucleation score stood at 0.548 ± 0.39.

Take RFISVMSLSLLNNNFIEAHV: the amyloid nucleation score stood at 0.55 ± 0.6.

RFLGSWCSIYIGRCVMFDRG returned an amyloid nucleation score of 1.13 ± 0.28.

For the substance RFLLLPAHPGPGVSMVYRYL, the amyloid nucleation score was 0.077 ± 0.9.

With RFNWFL, the amyloid nucleation score is -0.285 ± 0.86.

RFNYVYFINRNMNEPRRGSL yielded an amyloid nucleation score of 6.452 ± 0.061.

Regarding RFSITSGNYFNN, the amyloid nucleation score was -0.971 ± 0.79.

RFSQWLPFWSVGGELQSCFC: the amyloid nucleation score is 0.239 ± 0.68.

Substance RFVWKDDTHQAIGTFLMSQG had an amyloid nucleation score of 1 ± 0.54.

In turn, RGAQARSQCCMVVMSVESRS came in with an amyloid nucleation score of 0.628 ± 0.46.

As to RGCPAFDNVTSYDESSEWSY, the amyloid nucleation score turned out to be 0.365 ± 0.62.

The substance RGCSFFWCPLCRGYGGCLCC displayed an amyloid nucleation score of 0.482 ± 0.74.

As to RGGMIPGYTPAMYHWMLFKS, the amyloid nucleation score was found to be 0.185 ± 0.47.

RGNWIRS showed an amyloid nucleation score of -0.533 ± 0.77.

Take RGSEPAIGLMMVLP: the amyloid nucleation score came out at 0.458 ± 0.41.

The substance RGSNAMDYSEVFCWMYNDLL gave an amyloid nucleation score of 1.11 ± 0.58.

Substance RGYSGTTTHAATATKLS yielded an amyloid nucleation score of 1.56 ± 0.78.

With RHALGLFRSGLGMDMDDNGS, the amyloid nucleation score entry was “inactive”.

Consider RHCPLAVFRKSPLLAIGKFG, for which the amyloid nucleation score was -0.685 ± 0.66.

RHGVRYSKLELINTREFYNE: the amyloid nucleation score was -0.246 ± 0.9.

As to RHSFGLFVSRLVRFREDGYY, the amyloid nucleation score is -0.508 ± 0.52.

Substance RHYGGAFQRLYRMSGPMT gave an amyloid nucleation score of -1.05 ± 0.96.

With RICGGTSFDSRNGLKLGRKG, the amyloid nucleation score was found to be 0.034 ± 0.64.

RIFLLVTHVACAMPLFHKTR showed an amyloid nucleation score of 0.83 ± 0.75.

On to RIGRKDLLFWVPTCRHVLLL, for which the amyloid nucleation score is 0.416 ± 0.28.

The substance RIGVLNCWEVWADVTQREHL showed an amyloid nucleation score of -0.769 ± 1.1.

Turning to RINMGNYSLKWNMFTKVSLK, the amyloid nucleation score was -0.227 ± 0.35.

On to RINVSGWQLQATLSFLLAFS, for which the amyloid nucleation score worked out at 0.289 ± 0.5.

Substance RIRLVCHCPFSYRLAVPLSE displayed an amyloid nucleation score of 3.99 ± 0.1.

The substance RISTCIEILYDS returned an amyloid nucleation score of -0.587 ± 0.37.

RIVSSFLLSVVGCGMEVVRV showed an amyloid nucleation score of 0.349 ± 0.63.

Take RIYRFLKLLIRGGVISVARY: the amyloid nucleation score is -0.758 ± 1.9.

For the substance RKFGPMG, the amyloid nucleation score is 0.848 ± 1.

Substance RKGSVSQRDYSIDYWGFCRC returned an amyloid nucleation score of 1.37 ± 0.22.

In the case of RKLFDCGINACSLRYVTSYR, the amyloid nucleation score result was “inactive”.

Turning to RKLFYG, the amyloid nucleation score is -0.017 ± 0.39.

Take RKLLSISL: the amyloid nucleation score was determined as 0.22 ± 0.71.

Turning to RKNTDVTENEYRWAIF, the amyloid nucleation score was -0.522 ± 1.9.

RKPVVGSFIFTTFCKSYVDV gave an amyloid nucleation score of 2.9 ± 0.1.
